Reference: publication PMC10940649, “Structural insights into human organic cation transporter 1 transport and inhibition” (Cell Discovery, 2024)

Biological target: T1, human organic cation transporter 1 (hOCT1) (Homo sapiens, UniProt O15245)
T1 construct: human organic cation transporter 1 (SLC22A1), full-length, wild-type construct used for cryo-EM structure determination; A 3C protease cleavage site stands between hOCT1 and GFPuv-His6; The FSEC-TS assay used hOCT1-GFP; also called SLC22A1; hOCT1-GFP; source: Sf9 insect cells (baculovirus), purified (Ni-NTA, protein C column, SEC) in DDM or LMNG micelles
Assay: SEC; Nb56 with hOCT1; co-migration on size exclusion chromatography
Conditions: both partners purified

T1 sequence (O15245 whole entry): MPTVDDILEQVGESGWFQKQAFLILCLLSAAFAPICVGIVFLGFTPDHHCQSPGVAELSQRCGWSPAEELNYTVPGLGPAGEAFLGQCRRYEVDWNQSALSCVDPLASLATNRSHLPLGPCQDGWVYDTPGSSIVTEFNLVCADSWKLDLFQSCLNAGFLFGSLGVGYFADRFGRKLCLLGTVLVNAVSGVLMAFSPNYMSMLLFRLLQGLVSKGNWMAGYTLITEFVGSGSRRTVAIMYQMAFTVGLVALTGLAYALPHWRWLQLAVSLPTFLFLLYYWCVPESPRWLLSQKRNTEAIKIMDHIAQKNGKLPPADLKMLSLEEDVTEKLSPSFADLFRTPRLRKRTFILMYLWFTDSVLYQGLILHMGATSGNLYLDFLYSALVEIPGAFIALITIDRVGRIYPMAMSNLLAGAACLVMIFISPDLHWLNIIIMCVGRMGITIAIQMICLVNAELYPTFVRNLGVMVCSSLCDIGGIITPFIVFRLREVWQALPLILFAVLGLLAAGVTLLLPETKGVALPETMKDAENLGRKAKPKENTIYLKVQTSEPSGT

binding result: binds
B1: Nb56 (VHH)
VHH: QVQLQESGGGLVQAGGSLRLSCAASGTIFYYEIMGWYRQAPGKEREFVATIDQGGITNYADSVKGRFTISRDNAKNTVYLQMNSLKPEDTAVYYCAVPDVFVGRGWDYLIYWGQGTQVTVSS
notes: Nanobody selected from a synthetic yeast display library with hOCT1 in LMNG as bait; Nb56 was modelled in the deposited hOCT1-Nb5660 structures (hOCT1-apo1, -apo2, -apo3); source: E. coli BL21 (DE3), pET26b, purified (Ni-NTA, SEC)
